Experimental data from doi:10.1101/2021.08.19.457009 (bioRxiv, 2021).
Non-standard residues stand in square brackets, D forms with d. No end group written: not given here. pS = N[C@@H](COP(=O)(O)O)C(=O)O

T1: human 6His-14-3-3ζ (human, UniProt P63104 1-245)
T1 sequence (looked up): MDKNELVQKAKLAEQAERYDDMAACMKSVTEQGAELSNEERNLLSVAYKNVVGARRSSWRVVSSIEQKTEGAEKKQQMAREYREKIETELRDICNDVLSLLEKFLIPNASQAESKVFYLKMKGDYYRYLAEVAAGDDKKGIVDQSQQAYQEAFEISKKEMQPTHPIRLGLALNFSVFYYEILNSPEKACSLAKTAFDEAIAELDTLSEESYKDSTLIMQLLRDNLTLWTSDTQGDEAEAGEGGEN

B1: SNAP-TM-HCN1CT reporter CT_(731-910) (domain or fragment, mouse, UniProt O88704 731-910, looked up)
chain: VQQTQTQTQQQQQQQQQQQQQQQQQQQQQQQQQQQQQQQQQQQQQPQTPGSSTPKNEVHKSTQALHNTNLTKEVRPLSASQPSLPHEVSTLISRPHPTVGESLASIPQPVAAVHSTGLQAGSRSTVPQRVTLFRQMSSGAIPPNRGVPPAPPPPAAVQRESPSVLNTDPDAEKPRFASNL
B2: SNAP-TM-HCN1CT reporter CT_(731-910; S810A; S867A) (domain or fragment, mouse, UniProt O88704 731-910, looked up)
chain: VQQTQTQTQQQQQQQQQQQQQQQQQQQQQQQQQQQQQQQQQQQQQPQTPGSSTPKNEVHKSTQALHNTNLTKEVRPLSAAQPSLPHEVSTLISRPHPTVGESLASIPQPVAAVHSTGLQAGSRSTVPQRVTLFRQMASGAIPPNRGVPPAPPPPAAVQRESPSVLNTDPDAEKPRFASNL
B3: SNAP-TM-HCN1CT reporter CT_(731-910; Δ804-814; Δ861-871) (domain or fragment, mouse, UniProt O88704 731-910, looked up)
chain: VQQTQTQTQQQQQQQQQQQQQQQQQQQQQQQQQQQQQQQQQQQQQPQTPGSSTPKNEVHKSTQALHNTNLTKEPHEVSTLISRPHPTVGESLASIPQPVAAVHSTGLQAGSRSTVPQRVPPNRGVPPAPPPPAAVQRESPSVLNTDPDAEKPRFASNL
B4: SNAP-TM-HCN1CT reporter truncated of residues 803-910 (domain or fragment, mouse, UniProt O88704 598-802, looked up)
chain: LNTGVFNNQENEILKQIVKHDREMVQAIPPINYPQMTALNCTSSTTTPTSRMRTQSPPVYTATSLSHSNLHSPSPSTQTPQPSAILSPCSYTTAVCSPPIQSPLATRTFHYASPTASQLSLMQQPQQQLPQSQVQQTQTQTQQQQQQQQQQQQQQQQQQQQQQQQQQQQQQQQQQQQQPQTPGSSTPKNEVHKSTQALHNTNLTK

How the values were obtained:
human 6His-14-3-3ζ [1] = target: T1, human 6His-14-3-3ζ; assay: pull-down
human 6His-14-3-3ζ [2] = target: T1, human 6His-14-3-3ζ; assay: ITC

| Molecule | amount pulled down relative to CT (598-910) (human 6His-14-3-3ζ [1]) [fold] | Kd (human 6His-14-3-3ζ [2]) [µM] | other results |
| --- | --- | --- | --- |
| SNAP-TM-HCN1CT reporter also lacking the region containing peptide B (residues 790-820) (domain or fragment) | 0.23 | – | – |
| SNAP-TM-HCN1CT reporter lacking the region containing peptide C (amino acids 850-880) (domain or fragment) | 0.61 | – | – |
| SNAP-TM-HCN1CT reporter lacking the distal 30 amino acid block with the TRIP8b-tripeptide binding site (domain or fragment) | 1.18 | – | – |
| SRMRTQ[pS]PPVY [HCN1 phospho-peptide A] | – | 16 | – |
| B1 | – | – | amount pulled down relative to CT_(598-910) (human 6His-14-3-3ζ [1]): 1.39 fold |
| B2 | – | – | amount pulled down relative to CT_(731-910) (human 6His-14-3-3ζ [1]): 0.33 fold |
| B3 | – | – | amount pulled down relative to CT_(731-910) (human 6His-14-3-3ζ [1]): 0.26 fold |
| VRPLSA[pS]QPSL [HCN1 phospho-peptide B] | – | 25 | – |
| TLFRQM[pS]SGAI [HCN1 phospho-peptide C] | – | 15 | – |
| B4 | – | – | amount pulled down relative to CT_(598-910) (human 6His-14-3-3ζ [1]): 0.2 fold |
